Reference: paper PMC2814163 (2010)

T1: Glu-plasminogen (Homo sapiens, UniProt P00747)
T1 chain: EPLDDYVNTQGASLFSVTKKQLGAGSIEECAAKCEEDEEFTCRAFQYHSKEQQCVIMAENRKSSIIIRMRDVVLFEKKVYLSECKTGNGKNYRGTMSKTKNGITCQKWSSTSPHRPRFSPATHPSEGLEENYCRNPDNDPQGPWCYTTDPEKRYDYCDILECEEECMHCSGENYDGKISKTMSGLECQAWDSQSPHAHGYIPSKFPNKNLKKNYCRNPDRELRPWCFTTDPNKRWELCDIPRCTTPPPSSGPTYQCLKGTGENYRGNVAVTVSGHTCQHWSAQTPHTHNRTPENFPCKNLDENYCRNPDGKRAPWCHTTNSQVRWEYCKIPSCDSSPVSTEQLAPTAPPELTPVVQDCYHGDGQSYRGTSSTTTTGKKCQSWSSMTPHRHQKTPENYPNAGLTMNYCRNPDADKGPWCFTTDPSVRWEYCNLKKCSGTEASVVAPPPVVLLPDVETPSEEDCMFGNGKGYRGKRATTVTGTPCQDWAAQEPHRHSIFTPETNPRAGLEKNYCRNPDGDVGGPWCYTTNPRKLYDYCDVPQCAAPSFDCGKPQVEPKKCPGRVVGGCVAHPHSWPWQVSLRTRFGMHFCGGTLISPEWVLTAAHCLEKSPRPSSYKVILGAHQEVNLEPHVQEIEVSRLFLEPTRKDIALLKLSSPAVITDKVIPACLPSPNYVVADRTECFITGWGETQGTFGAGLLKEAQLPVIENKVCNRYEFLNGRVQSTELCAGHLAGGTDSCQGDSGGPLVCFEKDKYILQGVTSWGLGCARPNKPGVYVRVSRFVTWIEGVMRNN


Target: T1, Glu-plasminogen
Assay: SPR

Binder | Kd [nM]
CI-MPR Dom1-2 (protein) AAGTQGAEFPELCSYTWEAVDTKNNMLYKINICGNMGVAQCGPSSAVCMHDLKTDSFHSVGDSLLKTASRSLLEFNTTVNCKQQNHKIQSSITFLCGKTLGTPEFVTATDCVHYFEWRTTAACKKNIFKANKEVPCYAFDRELKKHDLNPLIKTSGAYLVDDSDPDTSLFINVCRDIEVLRASSPQVRVCPTGAAACLVRGDRAFDVGRPQEGLKLVSNDRLVLSYVKEGAGQPDFCDGHSPAVTITFVCPSERREGTIPKLTAKSNCRFEIEWVTEYACHR | 5
CI-MPR Dom1-3 (protein) AAGTQGAEFPELCSYTWEAVDTKNNMLYKINICGNMGVAQCGPSSAVCMHDLKTDSFHSVGDSLLKTASRSLLEFNTTVNCKQQNHKIQSSITFLCGKTLGTPEFVTATDCVHYFEWRTTAACKKNIFKANKEVPCYAFDRELKKHDLNPLIKTSGAYLVDDSDPDTSLFINVCRDIEVLRASSPQVRVCPTGAAACLVRGDRAFDVGRPQEGLKLVSNDRLVLSYVKEGAGQPDFCDGHSPAVTITFVCPSERREGTIPKLTAKSNCRFEIEWVTEYACHRDYLESRSCSLSSAQHDVAVDLQPLSRVEASDSLFYTSEADEYTYYLSICGGSQAPICNKKDAAVCQVKKADSTQVKVAGRPQNLTLRYSDGDLTLIYFGGEECSSGFQRMSVINFECNQTAGNNGRGAPVFTGEVDCTYFFTWDTKYACVH | 3
